Data on 1 molecule can be found in PMC11803495.

One data set has as its target T1, MBP-dPPR-nad7-Δ (synthetic construct (13 P-type PPR …)).
T1 chain: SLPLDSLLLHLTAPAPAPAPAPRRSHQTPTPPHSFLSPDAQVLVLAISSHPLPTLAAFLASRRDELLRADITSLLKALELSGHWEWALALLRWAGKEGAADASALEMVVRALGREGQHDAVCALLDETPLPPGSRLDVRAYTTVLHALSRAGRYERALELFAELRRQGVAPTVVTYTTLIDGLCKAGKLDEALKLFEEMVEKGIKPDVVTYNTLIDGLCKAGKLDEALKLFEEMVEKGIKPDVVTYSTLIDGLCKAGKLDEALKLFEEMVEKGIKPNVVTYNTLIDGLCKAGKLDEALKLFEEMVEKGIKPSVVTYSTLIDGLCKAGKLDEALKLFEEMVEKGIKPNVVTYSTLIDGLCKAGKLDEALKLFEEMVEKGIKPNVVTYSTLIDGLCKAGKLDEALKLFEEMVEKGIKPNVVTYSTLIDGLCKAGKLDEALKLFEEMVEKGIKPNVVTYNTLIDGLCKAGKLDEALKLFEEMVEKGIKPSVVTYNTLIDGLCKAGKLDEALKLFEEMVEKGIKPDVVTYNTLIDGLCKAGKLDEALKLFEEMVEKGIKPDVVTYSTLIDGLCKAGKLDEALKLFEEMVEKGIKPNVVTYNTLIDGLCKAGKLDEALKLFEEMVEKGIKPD
Description: EMSA. For orientation: A gel shift assay detects complexes by their altered migration in electrophoresis.

The target of the next data set is T2, MBP-dPPR-nad7-DYW (synthetic construct (13 P-type PPR …)).
T2 chain: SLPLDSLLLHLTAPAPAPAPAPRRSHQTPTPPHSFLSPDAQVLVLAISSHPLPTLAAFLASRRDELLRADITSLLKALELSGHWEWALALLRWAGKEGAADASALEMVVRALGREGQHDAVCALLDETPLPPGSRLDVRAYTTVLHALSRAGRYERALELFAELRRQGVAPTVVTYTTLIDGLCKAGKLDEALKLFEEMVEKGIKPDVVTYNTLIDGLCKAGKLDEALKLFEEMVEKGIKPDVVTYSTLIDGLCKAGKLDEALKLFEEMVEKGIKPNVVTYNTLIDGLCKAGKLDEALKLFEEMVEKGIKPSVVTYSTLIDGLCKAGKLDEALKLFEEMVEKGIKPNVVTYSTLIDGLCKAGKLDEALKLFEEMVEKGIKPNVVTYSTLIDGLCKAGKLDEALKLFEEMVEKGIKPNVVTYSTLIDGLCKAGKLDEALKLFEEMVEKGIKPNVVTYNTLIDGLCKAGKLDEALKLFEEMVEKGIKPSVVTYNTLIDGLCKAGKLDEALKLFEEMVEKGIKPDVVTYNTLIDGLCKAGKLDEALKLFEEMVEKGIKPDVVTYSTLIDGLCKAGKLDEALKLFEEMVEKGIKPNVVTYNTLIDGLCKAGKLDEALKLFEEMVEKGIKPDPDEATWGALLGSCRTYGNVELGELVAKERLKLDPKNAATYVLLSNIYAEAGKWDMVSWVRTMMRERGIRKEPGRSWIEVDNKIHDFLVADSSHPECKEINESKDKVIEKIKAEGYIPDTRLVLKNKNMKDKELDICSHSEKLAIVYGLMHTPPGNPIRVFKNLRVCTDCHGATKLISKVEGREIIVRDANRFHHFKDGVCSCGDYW
Description: EMSA.

Consider CUUUUGAAUUGCGAGGUACCAUUACGAG (ssRNA) [nad7 control], for which the binding result with MBP-dPPR-nad7-Δ and with MBP-dPPR-nad7-DYW was “no binding” in each case.
